From patent publication US20230295293A1 (published 2023)

Assays:
Human FRγ ECD-Avi-His = molecular target: T1, Human FRγ ECD-Avi-His (human, biotin on the Avi-tag (BirA) in the HTRF assays); experiment: HTRF antigen binding assay; hybridoma supernatant, 1 nM biotinylated antigen
T1 construct: Soluble region with C-terminal Avi and His tags
Protocol: (§1) HTRF assays were performed in 384-well white shallow well non-binding plates (Corning, 4513) in assay buffer containing phosphate-buffered saline (PBS) (Life Technologies, 14190), 0.100 v/v bovine serum albumin (BSA) (Sigma, A9576), and 0.4 M potassium fluoride (VWR International, 26820).
(§2) Supernatants containing mouse IgG from hybridoma cells were incubated at a final assay dilution of 25% with 0.5 nM streptavidin-cryptate (CisBio, 610SAKLB), anti-mouse IgG AF647 (Jackson ImmunoResearch, 115-605-164) and 1 nM biotinylated human FRα, cyno FRα, mouse FRα, human FRβ or human FRγ to give a final assay volume of 10 μl, for 4 hours at room temperature before fluorescence was measured.

Human FRβ ECD-Avi-His = molecular target: T2, Human FRβ ECD-Avi-His (human, biotin on the Avi-tag (BirA) in the HTRF assays); experiment: as above
T2 construct: Soluble region with C-terminal Avi and His tags; also called Human FRß
T2 sequence (chain, as listed by the source limits assumed): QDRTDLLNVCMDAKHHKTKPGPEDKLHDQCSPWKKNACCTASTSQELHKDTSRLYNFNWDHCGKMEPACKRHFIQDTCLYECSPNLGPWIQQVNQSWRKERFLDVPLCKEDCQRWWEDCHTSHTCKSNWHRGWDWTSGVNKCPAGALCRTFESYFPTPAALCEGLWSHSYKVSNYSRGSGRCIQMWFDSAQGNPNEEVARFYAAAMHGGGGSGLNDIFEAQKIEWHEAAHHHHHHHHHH
Protocol: as §1, §2

Mouse FRα ECD-Avi-His = molecular target: T3, Mouse FRα ECD-Avi-His (mouse, biotin on the Avi-tag (BirA) in the HTRF assays); experiment: as above
T3 construct: Soluble region with C-terminal Avi and His tags
T3 sequence (chain, as listed by the source limits assumed): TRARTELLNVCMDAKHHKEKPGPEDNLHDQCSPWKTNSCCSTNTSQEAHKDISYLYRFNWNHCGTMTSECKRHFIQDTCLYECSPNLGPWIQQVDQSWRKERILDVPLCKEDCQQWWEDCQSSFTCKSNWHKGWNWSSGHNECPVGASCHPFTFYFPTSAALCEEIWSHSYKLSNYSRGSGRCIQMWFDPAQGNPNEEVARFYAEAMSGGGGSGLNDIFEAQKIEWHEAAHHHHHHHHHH
Protocol: as §1, §2

Human FRα ECD-Avi-His [1] = molecular target: T4, Human FRα ECD-Avi-His (human, biotin on the Avi-tag (BirA) in the HTRF assays); experiment: MOv19 HTRF epitope competition assay, geomean; IgG kept 2 weeks at 4°C; competitor MOv19
T4 construct: also called biotinylated human FRα; folate receptor alpha
T4 sequence (chain, as listed by the source limits assumed): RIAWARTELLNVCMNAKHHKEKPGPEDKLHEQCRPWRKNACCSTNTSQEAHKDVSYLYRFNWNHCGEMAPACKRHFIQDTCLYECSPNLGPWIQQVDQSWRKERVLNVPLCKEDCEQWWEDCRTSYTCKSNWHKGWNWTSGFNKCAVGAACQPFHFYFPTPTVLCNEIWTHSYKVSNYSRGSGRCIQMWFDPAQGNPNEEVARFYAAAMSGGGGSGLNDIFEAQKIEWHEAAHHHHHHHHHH

Cyno FRα ECD-Avi-His [2] = molecular target: T5, Cyno FRα ECD-Avi-His (cynomolgus monkey, biotin on the Avi-tag (BirA) in the HTRF assays); experiment: SPR (Biacore T200)
T5 construct: Soluble region with C-terminal Avi and His tags
T5 sequence (chain, as listed by the source limits assumed): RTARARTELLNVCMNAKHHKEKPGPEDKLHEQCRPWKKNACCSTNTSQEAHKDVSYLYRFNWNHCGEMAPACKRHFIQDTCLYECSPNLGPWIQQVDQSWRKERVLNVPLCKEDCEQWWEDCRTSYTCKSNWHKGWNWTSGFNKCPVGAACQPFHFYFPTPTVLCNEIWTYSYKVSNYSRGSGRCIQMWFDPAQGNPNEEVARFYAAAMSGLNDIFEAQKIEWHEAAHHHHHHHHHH
Protocol: (§3) Protein A was covalently immobilised to a CM5 chip surface using standard amine coupling techniques at a concentration of 50 μg/ml in 10 mM Sodium acetate, pH 4.0. The antibody was captured onto the Protein A surface in HBS-EP+ buffer, pH 7.4 at 10 μl/min to enable FRα ECD binding. The FRα ECD was serially diluted (0.4 nM-100 nM human FRα ECD; 0.8 nM-200 nM cyno FRα ECD; 30 nM-4000 nM mouse FRα ECD and rat FRα ECD) in HBS-EP+ buffer, pH 7.4 and flowed over the chip at 50 μl/min, with 2 minutes association and 8 minutes dissociation. The chip surface was fully regenerated with pulses of 3 M MgCl₂ to remove captured antibody together with any bound FRα ECD. Multiple buffer-only injections were made under the same conditions to allow for double reference subtraction of the final sensorgram sets, which were analysed using Biacore T200 Evaluation Software to derive equilibrium dissociation constants.

Human FRα ECD-Avi-His [3] = molecular target: T4, Human FRα ECD-Avi-His; experiment: HTRF epitope competition assay, geomean n>2; competitor DyLight 650 labelled Comparator Antibody 1
Protocol: as §1
(§4) HTRF epitope competition assays were set up using a titration of test IgG, 1 nM streptavidin cryptate, biotinylated human FRα and DyLight 650 labelled IgG to assay volume of 10 μl. […] Assay plates were incubated for 3-4 h at room temperature prior to fluorescence measurement.

Human FRα ECD-Avi-His [4] = molecular target: T4, Human FRα ECD-Avi-His; experiment: HTRF epitope competition assay, geomean n>2; competitor DyLight 650 labelled Comparator Antibody 2
Protocol: as §1, §4

Human FRα ECD-Avi-His [5] = molecular target: T4, Human FRα ECD-Avi-His; experiment: MOv19 HTRF epitope competition assay, geomean; IgG kept 2 weeks at 45°C; competitor MOv19
Human FRα ECD-Avi-His [6] = molecular target: T4, Human FRα ECD-Avi-His; experiment: MOv19 HTRF epitope competition assay; accelerated stability study
Cyno FRα ECD-Avi-His [7] = molecular target: T5, Cyno FRα ECD-Avi-His; experiment: SPR (Biacore T200, 25°C); antibody captured on Protein A, FRα ECD as analyte
Protocol: as §3

Human FRα ECD-Avi-His [8] = molecular target: T4, Human FRα ECD-Avi-His; experiment: as above
Protocol: as §3

Human FRα ECD-Avi-His [9] = molecular target: T4, Human FRα ECD-Avi-His; experiment: HTRF epitope competition assay, geomean n>2; competitor DyLight 650 labelled Comparator Antibody 3
Protocol: as §1, §4

T1 sequence (chain, as listed by the source limits assumed): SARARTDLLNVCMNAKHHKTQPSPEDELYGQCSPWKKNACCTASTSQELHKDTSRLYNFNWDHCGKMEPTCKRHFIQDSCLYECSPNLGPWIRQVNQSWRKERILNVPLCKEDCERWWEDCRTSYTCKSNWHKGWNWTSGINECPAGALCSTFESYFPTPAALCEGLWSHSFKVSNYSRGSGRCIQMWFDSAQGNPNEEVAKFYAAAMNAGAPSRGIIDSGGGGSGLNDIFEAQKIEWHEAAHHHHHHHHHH

| Binder | binding result (Human FRγ ECD-Avi-His) | binding result (Human FRβ ECD-Avi-His) | binding result (Mouse FRα ECD-Avi-His) | IC50 (Human FRα ECD-Avi-His [1]) [nM] | fold difference of affinity, cyno FRα against human FRα (Cyno FRα ECD-Avi-His [2]) [fold] | IC50 (Human FRα ECD-Avi-His [3]) [nM] | IC50 (Human FRα ECD-Avi-His [4]) [nM] | IC50 (Human FRα ECD-Avi-His [5]) [nM] | fold difference (IC50 45°C against 4°C) (Human FRα ECD-Avi-His [6]) [fold] | Kd (Cyno FRα ECD-Avi-His [7]) [nM] | koff (Cyno FRα ECD-Avi-His [7]) [s⁻¹] | kon (Cyno FRα ECD-Avi-His [7]) [M⁻¹ s⁻¹] | Kd (Human FRα ECD-Avi-His [8]) [nM] | koff (Human FRα ECD-Avi-His [8]) [s⁻¹] | kon (Human FRα ECD-Avi-His [8]) [M⁻¹ s⁻¹] | IC50 (Human FRα ECD-Avi-His [9]) [nM] |
| --- | --- | --- | --- | --- | --- | --- | --- | --- | --- | --- | --- | --- | --- | --- | --- | --- |
| AB1370083 (hybridoma IgG) (antibody, V domains shown, IgG from hybridoma of Del-1 humanised mouse, tested as supernatant ('mouse IgG', detected with anti-mouse IgG) or Phynexus purified) VH: EVQLVESGGGLVKPGGSLRLSCAASGFTFSSYNMNWVRQAPGKGLEWVSSISSGSSYIYYADSMKGRFTISRDNAKNSLFLQMNSLRAEDTAVYYCARGMTTLTFDYWGQGTLVTVSS VL: DIQMTQSPSSLSASVGDRVTITCRASQGISTFLAWFQQKPGKAPKSLIYAASSLQSGVPSKFSGSGSETDFTLTISSLQPEDFATYYCQQYISYPLTFGGGTKVEIK | no binding | no binding | no binding | – | – | – | – | – | – | – | – | – | – | – | – | – |
| AB1370095 (hybridoma IgG) (antibody, V domains shown, IgG from hybridoma of Del-1 humanised mouse, tested as supernatant ('mouse IgG', detected with anti-mouse IgG) or Phynexus purified) VH: EVQLVESGGGLVKPGGSLRLSCAASGFTFSSYSMNWVRQAPGKGLEWVSSISSRSSYVYYADSVKGRFTISRDNAKNSLYLQMNSLRAEDTAVYYCARGMTTLTFDYWGQGTLVTVSS VL: DIQMTQSPSSLSASVGDRVTITCRASQGISSFLAWFQQKPGKAPKSLIYAASSLQSGVPSKFSGSGSGTDFTLTISSLQPEDFATYYCQQYNSYPLTFGGGTKVEIK | no binding | no binding | no binding | – | – | – | – | – | – | – | – | – | – | – | – | – |
| AB1370026 hIgG1 (antibody, V domains shown) VH: EVQLVESGGGLVKPGGSLRLSCAASGFTFSSYAMSWVRQAPGKGLEWVSSISSGRSYIYYADSVKGRFTISRDNAKNSLYLKMNSLRDEDTAVYYCAREMQQLALDYWGQGTLVTVSS VL: DIQMTQSPSSLSASVGDRVTITCRASQGISNFLAWFQQAPGKAPKSLIYAASSLQSGVPSKFSGSGSGTDFTLTISSLQPEDFATYYCQQYNSYPFTFGQGTKLEIKR | – | – | – | 0.711 | ≤ 2.5 | 0.032 | 0.177 | 0.708 | 1 | 1.8 | 0.000342 | 195000 | 1.3 | 0.000354 | 279000 | – |
| AB1370026 (hybridoma IgG) (antibody, V domains shown, IgG from hybridoma of Del-1 humanised mouse, tested as supernatant ('mouse IgG', detected with anti-mouse IgG) or Phynexus purified) VH: EVQLVESGGGLVKPGGSLRLSCAASGFTFSSYAMSWVRQAPGKGLEWVSSISSGRSYIYYADSVKGRFTISRDNAKNSLYLKMNSLRDEDTAVYYCAREMQQLALDYWGQGTLVTVSS VL: DIQMTQSPSSLSASVGDRVTITCRASQGISNFLAWFQQAPGKAPKSLIYAASSLQSGVPSKFSGSGSGTDFTLTISSLQPEDFATYYCQQYNSYPFTFGQGTKLEIK | no binding | no binding | no binding | – | – | – | – | – | – | – | – | – | – | – | – | – |
| AB1370083 hIgG1 (antibody, V domains shown) VH: EVQLVESGGGLVKPGGSLRLSCAASGFTFSSYNMNWVRQAPGKGLEWVSSISSGSSYIYYADSMKGRFTISRDNAKNSLFLQMNSLRAEDTAVYYCARGMTTLTFDYWGQGTLVTVSS VL: DIQMTQSPSSLSASVGDRVTITCRASQGISTFLAWFQQKPGKAPKSLIYAASSLQSGVPSKFSGSGSETDFTLTISSLQPEDFATYYCQQYISYPLTFGGGTKVEIKR | – | – | – | 0.0511 | ≤ 2.5 | 0.0296 | 0.0806 | 0.0665 | 1.3 | 1.56 | 0.00016 | 101000 | 0.93 | 0.000135 | 145000 | – |
| AB1370095 hIgG1 (antibody, V domains shown) VH: EVQLVESGGGLVKPGGSLRLSCAASGFTFSSYSMNWVRQAPGKGLEWVSSISSRSSYVYYADSVKGRFTISRDNAKNSLYLQMNSLRAEDTAVYYCARGMTTLTFDYWGQGTLVTVSS VL: DIQMTQSPSSLSASVGDRVTITCRASQGISSFLAWFQQKPGKAPKSLIYAASSLQSGVPSKFSGSGSGTDFTLTISSLQPEDFATYYCQQYNSYPLTFGGGTKVEIKR | – | – | – | 5.07 | ≤ 2.5 | 0.363 | 4.15 | 4.31 | 0.85 | 19.1 | 0.00183 | 95800 | 13.5 | 0.00129 | 95700 | – |
| AB1370117 hIgG1 (antibody, V domains shown) VH: QVQLQQSGPGLVKPSQTLSLTCAISGDSVSSDSATWNWIRQSPSRGLEWLGRTYYRSKWYSDYAVSVKSRITINPDTSKNQFSLQLNSVTPEDTAVYFCARGGAPFDYWGQGTLVTVSS VL: not shown | – | – | – | 3.75 | ≤ 2.5 | – | 9.33 | 5.48 | 1.46 | 5.1 | 0.00187 | 364000 | 2.6 | 0.000762 | 293000 | 1.83 |
| AB1370117 (hybridoma IgG) (antibody, V domains shown, IgG from hybridoma of Del-1 humanised mouse, tested as supernatant ('mouse IgG', detected with anti-mouse IgG) or Phynexus purified) VH: QVQLQQSGPGLVKPSQTLSLTCAISGDSVSSDSATWNWIRQSPSRGLEWLGRTYYRSKWYSDYAVSVKSRITINPDTSKNQFSLQLNSVTPEDTAVYFCARGGAPFDYWGQGTLVTVSS VL: not shown | no binding | no binding | no binding | – | – | – | – | – | – | – | – | – | – | – | – | – |
| AB1370035 hIgG1 (antibody, V domains shown) VH: QVQLQQSGPGLVKPSQTLSLTCAISGDSVSSNSAAWNWIRQSPSRGLEWLGRTYYRSNWYNDYTLSVKSRITVNPDTSKNQFSLQLNSVTPEDTAVYYCVRGVGRFDSWGQGTLVTVSS VL: DIQMTQSPSTLSASVGDRVIITCRASQSISSWLAWYQQKPGKAPKLLIYKASSLESGVPSRFSGSGSGTEFTLTITSLQPDDFASYYCQEYKTYSIFTFGPGTKVDIKR | – | – | – | 0.945 | ≤ 2.5 | – | 1.46 | 1.16 | 1.23 | 1.1 | 0.000508 | 475000 | 0.93 | 0.000527 | 568000 | 0.285 |
| AB1370049 hIgG1 (antibody, V domains shown) VH: LVQLQQSGPGLVKPSQTLSLTCAISGDSVSSDSATWNWIRQSPSRGLEWLGRTYYRSKWYNDYAVSVKSRITINPDTSKNQFSLQLNSVTPEDTAVYYCARGVGSFDYWGQGTLVTVSS VL: not shown | – | – | – | – | – | – | – | – | – | 36.9 | – | – | – | – | – | – |
| AB1370049 (hybridoma IgG) (antibody, V domains shown, IgG from hybridoma of Del-1 humanised mouse, tested as supernatant ('mouse IgG', detected with anti-mouse IgG) or Phynexus purified) VH: LVQLQQSGPGLVKPSQTLSLTCAISGDSVSSDSATWNWIRQSPSRGLEWLGRTYYRSKWYNDYAVSVKSRITINPDTSKNQFSLQLNSVTPEDTAVYYCARGVGSFDYWGQGTLVTVSS VL: not shown | no binding | no binding | no binding | – | – | – | – | – | – | – | – | – | – | – | – | – |
| AB1370035 (hybridoma IgG) (antibody, V domains shown, IgG from hybridoma of Del-1 humanised mouse, tested as supernatant ('mouse IgG', detected with anti-mouse IgG) or Phynexus purified) VH: QVQLQQSGPGLVKPSQTLSLTCAISGDSVSSNSAAWNWIRQSPSRGLEWLGRTYYRSNWYNDYTLSVKSRITVNPDTSKNQFSLQLNSVTPEDTAVYYCVRGVGRFDSWGQGTLVTVSS VL: DIQMTQSPSTLSASVGDRVIITCRASQSISSWLAWYQQKPGKAPKLLIYKASSLESGVPSRFSGSGSGTEFTLTITSLQPDDFASYYCQEYKTYSIFTFGPGTKVDIK | no binding | no binding | no binding | – | – | – | – | – | – | – | – | – | – | – | – | – |
